Read-outs that look alike come from different tables or passages of the source.

Assay [1] deals with RBD-Fc (义翘神州，40592-V05H) (SARS-CoV-2) (UniProt P0DTC2).
Assay [2] shares this target. This is another data set of the same source.

Consider “hACE2-Fc融合蛋白 (人ACE2胞外区(ECD)与人IgG1的Fc片段的融合蛋白) (Fc fusion)”, for which the IC50 in assay [1] was 7.6 nM; in assay [2], 5.02 nM.

Source of the values: patent CN114057887A.
